Measurements: publication PMC9028814

Molecular target: Acid-solubilized type I bovine collagen (bovine) (UniProt P02453)
Assay: SPR

Chain of UniProt P02453 (P02453 162-1217, chain 1 of 2): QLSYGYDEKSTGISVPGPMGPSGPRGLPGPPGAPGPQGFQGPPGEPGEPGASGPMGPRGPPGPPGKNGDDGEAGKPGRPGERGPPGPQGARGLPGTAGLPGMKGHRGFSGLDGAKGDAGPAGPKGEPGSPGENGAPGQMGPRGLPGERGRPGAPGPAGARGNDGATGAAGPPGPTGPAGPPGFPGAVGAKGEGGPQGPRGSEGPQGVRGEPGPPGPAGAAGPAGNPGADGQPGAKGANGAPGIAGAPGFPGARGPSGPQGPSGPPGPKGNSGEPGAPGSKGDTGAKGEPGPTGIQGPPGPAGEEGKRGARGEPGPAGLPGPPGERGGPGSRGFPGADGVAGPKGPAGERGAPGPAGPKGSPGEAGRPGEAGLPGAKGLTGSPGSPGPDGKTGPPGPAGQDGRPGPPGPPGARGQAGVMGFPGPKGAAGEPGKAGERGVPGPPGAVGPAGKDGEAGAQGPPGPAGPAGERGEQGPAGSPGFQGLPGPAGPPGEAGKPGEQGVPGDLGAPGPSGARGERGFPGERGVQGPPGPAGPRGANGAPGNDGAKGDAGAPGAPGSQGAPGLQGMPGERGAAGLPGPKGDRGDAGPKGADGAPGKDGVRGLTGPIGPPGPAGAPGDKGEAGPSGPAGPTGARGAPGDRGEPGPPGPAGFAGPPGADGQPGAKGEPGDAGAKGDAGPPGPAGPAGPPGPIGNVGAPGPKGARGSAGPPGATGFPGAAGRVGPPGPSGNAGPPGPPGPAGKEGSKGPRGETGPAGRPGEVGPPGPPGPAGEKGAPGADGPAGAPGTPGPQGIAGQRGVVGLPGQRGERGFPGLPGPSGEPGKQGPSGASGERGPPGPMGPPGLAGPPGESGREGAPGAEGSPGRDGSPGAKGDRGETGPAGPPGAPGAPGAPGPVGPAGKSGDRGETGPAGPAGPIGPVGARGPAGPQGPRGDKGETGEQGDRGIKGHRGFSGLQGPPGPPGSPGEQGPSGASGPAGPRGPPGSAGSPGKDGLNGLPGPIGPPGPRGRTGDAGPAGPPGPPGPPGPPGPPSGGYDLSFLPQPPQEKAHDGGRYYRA
Chain of UniProt P02453 (P02465 80-1117, chain 2 of 2, further chain): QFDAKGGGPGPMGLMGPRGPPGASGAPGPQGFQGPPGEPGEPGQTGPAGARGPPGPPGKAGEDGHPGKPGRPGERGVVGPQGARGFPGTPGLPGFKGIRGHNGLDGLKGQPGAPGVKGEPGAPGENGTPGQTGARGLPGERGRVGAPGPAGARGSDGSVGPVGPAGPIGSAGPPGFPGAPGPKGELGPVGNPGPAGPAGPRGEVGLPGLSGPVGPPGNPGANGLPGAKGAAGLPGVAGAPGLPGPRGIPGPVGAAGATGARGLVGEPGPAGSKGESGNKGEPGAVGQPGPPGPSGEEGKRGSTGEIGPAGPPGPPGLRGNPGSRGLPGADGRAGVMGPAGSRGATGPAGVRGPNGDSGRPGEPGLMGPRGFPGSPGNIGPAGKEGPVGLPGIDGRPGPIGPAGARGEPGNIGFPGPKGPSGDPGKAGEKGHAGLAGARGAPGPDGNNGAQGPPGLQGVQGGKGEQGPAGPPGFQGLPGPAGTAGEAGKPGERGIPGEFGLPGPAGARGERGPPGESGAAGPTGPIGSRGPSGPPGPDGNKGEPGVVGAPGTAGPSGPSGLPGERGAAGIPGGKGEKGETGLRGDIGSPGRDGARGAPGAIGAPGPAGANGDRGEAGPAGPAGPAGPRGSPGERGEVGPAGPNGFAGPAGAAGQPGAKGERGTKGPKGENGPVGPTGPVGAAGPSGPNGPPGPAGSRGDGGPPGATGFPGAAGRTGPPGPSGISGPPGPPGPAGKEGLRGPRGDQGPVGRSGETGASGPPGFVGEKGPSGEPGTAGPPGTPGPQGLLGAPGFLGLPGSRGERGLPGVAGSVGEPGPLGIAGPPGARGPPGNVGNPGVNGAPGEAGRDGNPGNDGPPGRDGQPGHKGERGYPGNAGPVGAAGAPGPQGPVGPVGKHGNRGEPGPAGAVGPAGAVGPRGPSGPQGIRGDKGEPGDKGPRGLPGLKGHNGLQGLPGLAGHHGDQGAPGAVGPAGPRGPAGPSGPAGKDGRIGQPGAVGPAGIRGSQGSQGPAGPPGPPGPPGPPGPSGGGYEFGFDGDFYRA

Substance: Recombinant wild type von Willebrand factor (from UniProt P04275 764-2813) (natural protein)
- koff: 0.000932 s⁻¹
- kon: 2.36e+06 M⁻¹ s⁻¹

Substance: Human plasma von Willebrand factor (from UniProt P04275 764-2813) (natural protein)
- koff: 0.00073 s⁻¹
